Experimental data taken from patent US20160311919A1.

B1: Mab1.2.2 (antibody, human IgG2, V domains shown)
VH: ITLKESGPTLVKPTQTLTLTCTFSGFSLSAGGVGVGWIRQPPGKALEWLALIYWNDDKRYSPSLRSRLTITKDTSKNQVVLTITNMDPVDTATYYCAHSHYDYDWGSYFDYWGQGTLVTVSS
VL: DIVMTQTPLSLPVTPGEPASISCRSSQSLLDSDDGNTYLDWYLQKPGQSPQLLIYTLSYRASGVPDRFSGSGSGTDFTLNISRVEAEDVGVYYCMQRIEFPITFGQGTRLEIKR
B2: 1.7.3 (antibody, V domains shown)
VH: QVQLQESGPGLVKPSQTLSLTCTVSGGSISSANYYWTWIRQHPGKGLEWIGYIYYSGSTYCNPSLKSRVIISVDTSKNQFSLKLSSVTAADTAVYYCARGYNWNYFDYWGQGTLVTVSS
VL: DIVMTQSPATLSVSPGERATLSCRASQSVSSNLAWYQERPGQAPRLLIYGASTRATGIPARFSGSGSGTEFTLTISSLQSEDFAVYYCQQYNKWPPWTFGQGTKVEIER
B3: 2-7 (hybridoma of Table 6) (antibody, V domains shown)
VH: QVQLEQSGGGVVQPGRSLRLSCAASGFTFNNYGMHWVRQAPGKGLEWVAVIWYDGSNKYYADSVKGRFTISRDNSKNTLYLQMNSLRAEDTAVYYCAKDEEYYYVSGLDYWGQGTLVTVSS
VL: LTQSPSSLSASVRDRVTITCRASQDISNYLAWYQQKPGKVPNLLIYAASTLQSGVPSRFSGSGSGTDFTLTISSLQPEDVATYYCQKYNSAPLTFGGGTKVEIKR
B4: 2-15 (hybridoma of Table 6) (antibody, V domains shown)
VH: QVQLVESGGGVVQPGRSLRLSCAASGFTFSNYGIHWVRQAPGKGLEWVAVIWFDGRNKYYADSVKGRFTISRDNSKNTLYLQMNSLRAEDAAVYYCARDPFDYGDSFFDYWGQGTLVTVSS
VL: B3 VL
B5: 2-16 (hybridoma of Table 6) (antibody, V domains shown)
VH: QVQLVESGGGLVKPGGSLRLSCAASGFTFSDYYMTWIRQAPGKGLEWVSYISISGSITHYADSVKGRFTMSRDNAKNSLYLQMNSLRAEDTAVYYCARDGAAAGTDAFDIWGHGTKVTVSS
VL: EIVMTQSPATLSVSPGDRATLSCRASQNVSSNLAWYQQKPGQAPRLLIFGASTRATGIPARFSGSGSGTEFTLTISSLQSEDFAVYYCQQYHYWPTFGPGTKVDIKR
B6: 2-17 (hybridoma of Table 6) (antibody, V domains shown)
VH: QLVQSGAEVKKPGASVKVSCKASGYTFTGFYMHWVRQTPGQGLEWMGWINPNSGGTYYVQKFQGRVTMTRDTSISTVYMELSRLRSDDTAVYYCARDGYSSGEDWFDPWGQGTLVTVSS
VL: DIVMTQTPLSLSVTPGQPASISCKSSQSLLHSGGKTYLYWYLQRPGQPPQLLIYEVSNRFSGVPDRFSGSGSGTDFTLKISRVEAEDVGVYYCMQSIHLPLTFGGGTKVEIKR
B7: 2-22 (hybridoma of Table 6) (antibody, V domains shown)
VH: QVQLEQSGPGLVKPSQNLSLTCTVSGGSISSGGYFWSWIRQHPGKGLEWIGYIYYSGNTYYNPSLKSRVTISVDTSKNQFSLKLSSVTAADTAVYYCARDYYYDTSGFSYRYDWYYGMDVWGQGTTVTVSS
VL: DIQLTQSPSSLSASVGDRVTITCRASQGIRNDLGWYQQKPGKAPKRLIYAASSLQNGVPSRFSGSGSGTEFTLTISSLQPEDFATYYCLQHNTYPAFGQGTKVEIKR
B8: Mab1.10.2 (antibody, human IgG2, V domains shown)
VH: QVQLQESGPGLVKPSETLSLTCTVSGDSISNYYWSWIRQPPGKGLEWIGYFYYSGSTNYNPSLKSRVTISVDTSKNQFSLKLSSVTAADTAVYYCARDRGWADYWGQGTLVTVSS
VL: EIVLTQSPGTLSLSPGERATLSCRTSQSISSSYLAWYQQKPGQVPRLLIYGASSRATGIPDRFSGSGSGTDFTLTISRLEPEDFAVYYCQQYGSSITFGQGTRLEIKR
B9: Mab1.7.1 (antibody, human IgG2, V domains shown)
VH: B2 VH
VL: B2 VL
B10: GPNMB antibody (1.10.1) (antibody, V domains shown)
VH: B8 VH
VL: B8 VL

molecular target: GPNMB-V5His (recombinant human GPNMB extracellular domain with C-terminal V5-His tag) (human) (UniProt Q14956); assay: ELISA, coated GPNMB, Ab 37 ng/mL

First: B1
Second: B2
The Avg OD of the first is lower: 0.094 OD for the first, 0.239 OD for the second.

Compared with B3, B4 is lower in Avg OD: 0.308 OD for the first, 0.246 OD for the second.

First: B5
Second: B6
The Avg OD of the first is higher: 0.017 OD for the first, 0.008 OD for the second.

With B7 the Avg OD was 0.171 OD.

molecular target: GPNMB-V5His (recombinant human GPNMB extracellular domain with C-terminal V5-His tag) (human) (UniProt Q14956); assay: ELISA, coated GPNMB, Ab 111 ng/mL

Compared with B1, B2 is higher in Avg OD: 0.199 OD for the first, 0.451 OD for the second.

First: B3
Second: B4
The Avg OD of the first is higher: 0.494 OD for the first, 0.395 OD for the second.

First: B5
Second: B6
The Avg OD of the first is higher: 0.032 OD for the first, 0.009 OD for the second.

Work on B7 yielded an Avg OD of 0.355 OD.

molecular target: GPNMB-V5His (recombinant human GPNMB extracellular domain with C-terminal V5-His tag) (human) (UniProt Q14956); assay: ELISA, coated GPNMB, Ab 12.3 ng/mL

Going from B1 to B2, the Avg OD rises from 0.049 OD to 0.094 OD.

Compared with B3, B4 is lower in Avg OD: 0.156 OD for the first, 0.127 OD for the second.

B5 and B6 are the same in Avg OD: 0.011 OD for the first, 0.011 OD for the second.

For B7, the Avg OD was 0.068 OD.

molecular target: GPNMB-V5His (recombinant human GPNMB extracellular domain with C-terminal V5-His tag) (human) (UniProt Q14956); assay: ELISA, coated GPNMB, Ab 1 ug/mL

First: B1
Second: B2
The Avg OD of the first is lower: 0.499 OD for the first, 0.871 OD for the second.

Going from B3 to B4, the Avg OD falls from 0.719 OD to 0.568 OD.

Going from B5 to B6, the Avg OD falls from 0.173 OD to 0.019 OD.

Binder B7 has an Avg OD of 0.707 OD.

molecular target: GPNMB-V5His (recombinant human GPNMB extracellular domain with C-terminal V5-His tag) (human) (UniProt Q14956); assay: SPR (Biacore), mAb on protein A, GPNMB 880 nM

B1 and B2 are within 1.5-fold of each other in Kd: 96 nM for the first, 121 nM for the second.

B8 and B9 are within 1.5-fold of each other in Kd: 118 nM for the first, 122 nM for the second.

Binder B10 has a Kd of 209 nM.

B1 and B2 are within 1.5-fold of each other in koff: 0.00089 s⁻¹ for the first, 0.00117 s⁻¹ for the second.

First: B8
Second: B9
The koff of the first is 3.1-fold lower: 0.000466 s⁻¹ for the first, 0.00144 s⁻¹ for the second.

With B10 the koff was 0.000885 s⁻¹.

B1 and B2 are within 1.5-fold of each other in kon: 9260 M⁻¹ s⁻¹ for the first, 9650 M⁻¹ s⁻¹ for the second.

Compared with B8, B9 is 3-fold higher in kon: 3960 M⁻¹ s⁻¹ for the first, 11800 M⁻¹ s⁻¹ for the second.

B10 gave a kon of 4240 M⁻¹ s⁻¹.

molecular target: GPNMB-V5His (recombinant human GPNMB extracellular domain with C-terminal V5-His tag) (human) (UniProt Q14956); assay: ELISA, coated GPNMB, Ab 333 ng/mL

Compared with B1, B2 is higher in Avg OD: 0.356 OD for the first, 0.76 OD for the second.

Compared with B3, B4 is lower in Avg OD: 0.68 OD for the first, 0.578 OD for the second.

Compared with B5, B6 is lower in Avg OD: 0.068 OD for the first, 0.01 OD for the second.

B7 was tested, and the Avg OD was 0.538 OD.

molecular target: GPNMB-V5His (recombinant human GPNMB extracellular domain with C-terminal V5-His tag) (human) (UniProt Q14956); assay: ELISA, coated GPNMB, Ab 3 ug/mL

Going from B1 to B2, the Avg OD rises from 0.763 OD to 1 OD.

First: B3
Second: B4
The Avg OD of the first is higher: 0.827 OD for the first, 0.601 OD for the second.

Compared with B5, B6 is lower in Avg OD: 0.359 OD for the first, 0.053 OD for the second.

In the case of B7, the Avg OD is reported as 0.714 OD.
